The text below walks through data of patent US20190322748A1 (Hoffmann-La Roche, published 2019).

The target of assay [1] is T1, Tim3-CLIP (on transiently transfected HEK293 cells) (human, CLIP-tag labelled with Clip-Red).
T1 construct: The plasmid encodes residues 1-202 including the signal peptide; also called CLIP-tagged TIM3
The assay can be described thus: cell-based TR-FRET (Tag-lite) on HEK293 cells co-transfected with PD1-SNAP (Lumi4-Tb) and Tim3-CLIP (Clip-Red), 1 h at 4 C; signal needs both receptors bound at once by one antibody; mean +/- SD, n=3. (Time-resolved FRET reads energy transfer from a long-lived donor to a nearby acceptor.)

The next assay concerns the target T2, monomeric human Tim3-ECD (human, UniProt Q8TDQ0 22-202).
T2 construct: SPR analyte; also called huTim3; hu Tim3-ECD
The experiment in a line: SPR Biacore T200, Ab captured on anti-human Fab IgG, hu Tim3-ECD in solution, 25 C. (In general: Surface plasmon resonance follows binding to a sensor surface in real time, without labels.)

In assay [2] the target is T3, full-length human Tim3 on cells (CHO-K1 stably transfected with plasmid 15312_hTIM3-fl_pUC_Neo) (human, UniProt Q8TDQ0 22-301). The experiment in a line: cell-based or functional assay.
Assay [3] has as its target T3, full-length human Tim3 on cells (CHO-K1 …). The assay can be described thus: cell-based or functional assay. The source holds these as a separate data set.
Assay [4] deals with T4, biotinylated PD1-ECD-AviHis (human, UniProt Q15116 25-170, biotinylated, site not stated).
T4 construct: also called huPD1; hu PD1
The experiment in a line: ELISA on coated biotinylated PD1-ECD-AviHis. A general note: In an ELISA, binding on a coated surface is turned into a signal by an enzyme label.

Assay [5] has as its target T5, biotinylated TIM3-ECD-AviHis (human, UniProt Q8TDQ0 22-202, biotinylated, site not stated).
T5 construct: also called huTIM3; Hu TIM3
The experiment in a line: ELISA on coated biotinylated TIM3-ECD-AviHis.

Assay [6] addresses T6, full-length human PD1 on cells (CHO-K1 stably transfected with plasmid 15311_hPD1-fl_pUC_Neo) (human, UniProt Q15116 25-288). The assay can be described thus: cell-based or functional assay.
In assay [7] the target is T7, PD1-SNAP (on transiently transfected HEK293 cells) (human, SNAP-tag labelled with SNAP-Lumi4-Tb).
T7 construct: also called SNAP-tagged PD1
The assay can be described thus: cell-based TR-FRET on SNAP-tagged PD1 / CLIP-tagged TIM3 HEK293 cells, 1 h at 4 C; half-maximal FRET, i.e. simultaneous binding of both receptors, not of one arm alone.

Assay [8] concerns the target T1, Tim3-CLIP (on transiently transfected …). The description is as above.
For the next assay, the target named is T8, human PD1-ECD (human, UniProt Q15116 25-170).
T8 construct: SPR analyte; also called hu PD1-ECD
The experiment in a line: SPR Biacore T200, Ab captured on anti-human Fc IgG, hu PD1-ECD in solution, 25 C.

In assay [9] the target is T7, PD1-SNAP (on transiently transfected …). The experiment in a line: cell-based TR-FRET (Tag-lite) on HEK293 cells co-transfected with PD1-SNAP (Lumi4-Tb) and Tim3-CLIP (Clip-Red), 1 h at 4 C; signal needs both receptors bound at once by one antibody; mean +/- SD, n=3.
In assay [10] the target is T1, Tim3-CLIP (on transiently transfected …). The assay is described as above. This is another data set of the same source.
Assay [11] has as its target T6, full-length human PD1 on cells (CHO-K1 …). The experiment in a line: cell-based or functional assay. This is another data set of the same source.
For assay [12] the target is unchanged. The assay can be described thus: cell-based or functional assay. The source holds these as a separate data set.

Like-named read-outs stand apart in the source and are kept apart here. A value given as a limit tells only on which side of the number the result lay.

B1: 1+1 PD1TIM3_0477 (based on humanized PD1-0103_0312 / Tim3-0434) (bispecific antibody, human IgG1, kappa, L234A L235A)
heavy 1: not shown
heavy 2: QITLKESGPTLVKPTQTLTLTCTFSGFSLSTSGMSVGWIRQPPGKGLEWLAHIWLNDDVFFNPALKSRLTITKDTSKNQVVLTMTNMDPVDTATYYCVRANGYLYALDYWGQGTLVTVSSASTKGPSVFPLAPSSKSTSGGTAALGCLVEDYFPEPVTVSWNSGALTSGVHTFPAVLQSSGLYSLSSVVTVPSSSLGTQTYICNVNHKPSNTKVDEKVEPKSCDKTHTCPPCPAPEAAGGPSVFLFPPKPKDTLMISRTPEVTCVVVDVSHEDPEVKFNWYVDGVEVHNAKTKPREEQYNSTYRVVSVLTVLHQDWLNGKEYKCKVSNKALGAPIEKTISKAKGQPREPQVCTLPPSRDELTKNQVSLSCAVKGFYPSDIAVEWESNGQPENNYKTTPPVLDSDGSFFLVSKLTVDKSRWQQGNVFSCSVMHEALHNHYTQKSLSLSPGK
light 1: EVQLLESGGGLVQPGGSLRLSCAASGFSFSSYTMSWVRQAPGKGLEWVATISGGGRDIYYPDSVKGRFTISRDNSKNTLYLQMNSLRAEDTAVYYCVLLTGRVYFALDSWGQGTLVTVSSASVAAPSVFIFPPSDEQLKSGTASVVCLLNNFYPREAKVQWKVDNALQSGNSQESVTEQDSKDSTYSLSSTLTLSKADYEKHKVYACEVTHQGLSSPVTKSFNRGEC
light 2: DIQLTQSPSFLSASVGDRVTITCSASSSVSYTQWYQQKPGKAPKLWIYDAFKLAPGVPSRFSGSGSGTEFTLTISSLQPEDFATYFCHQWSSYPWTFGQGTKLEIKRTVAAPSVFIFPPSDRKLKSGTASVVCLLNNFYPREAKVQWKVDNALQSGNSQESVTEQDSKDSTYSLSSTLTLSKADYEKHKVYACEVTHQGLSSPVTKSFNRGEC
notes: 1+1 CrossMAb Vh-VL: HC1/LC1 form the crossed PD1 arm, HC2/LC2 the TIM3 arm; knobs into holes; also called PD1TIM3_477
Turning to B1, the binding result in assay [1] is on record as “binds”. Binding in the assay with monomeric human Tim3-ECD was characterised by a dissociation constant (Kd) of 12 nM.

B2: Chimeric TIM3-0016 variant (0018) (antibody, human IgG1, V domains shown)
VH: QVTLKESGPGILQPSQTLSLTCSFSGFSLSTSGMSVGWIRQPSGKGLEWLAHIWLNDDVFFNPALKRRLTISKDTSNNQVFLQIASVVTADTATYYCVRANGYLYALDYWGQGISVTVSS
VL: QIVLTQSPAIMSASPGQKVTITCSASSSVNYTQWYQQKLGSSPKLWIYDAFKLAPGVPARFSGSGTGTSYSLTISSMEAEDAASYFCHQWSSYPWTFGGGTKLEIK
notes: also called Chimeric TIM3-0018
In the case of B2, in [2], the “EC50 of IFN-gamma secretion in MLR, donors D2 + D6” value (from here on “EC50 … donors D2 + D6”) was greater than 274 nM. In assay [3], the “EC50 of IFN-g secretion/release in MLR, donors D1 + D5, with 0.1 µg/ml anti-PD1 mAb” value came to 4.2 nM and the “EC50 of IFN-g secretion/release in MLR, donors D2 + D3, with 0.1 µg/ml anti-PD1 mAb” value turned out to be 3.1 nM. The binding result in [4] is reported as “no binding”. In addition, in assay [5], the 50% effective concentration (EC50) (in general, the concentration needed to bring the measured effect to its halfway point) is 0.15 nM.

B3: 1+1 PD1TIM3_0168 (based on chimeric PD1-0103 / Tim3-0018) (bispecific antibody, human IgG1, kappa, L234A L235A)
heavy 1: not shown
heavy 2: QVTLKESGPGILQPSQTLSLTCSFSGFSLSTSGMSVGWIRQPSGKGLEWLAHIWLNDDVFFNPALKRRLTISKDTSNNQVFLQIASVVTADTATYYCVRANGYLYALDYWGQGISVTVSSASTKGPSVFPLAPSSKSTSGGTAALGCLVEDYFPEPVTVSWNSGALTSGVHTFPAVLQSSGLYSLSSVVTVPSSSLGTQTYICNVNHKPSNTKVDEKVEPKSCDKTHTCPPCPAPEAAGGPSVFLFPPKPKDTLMISRTPEVTCVVVDVSHEDPEVKFNWYVDGVEVHNAKTKPREEQYNSTYRVVSVLTVLHQDWLNGKEYKCKVSNKALGAPIEKTISKAKGQPREPQVCTLPPSRDELTKNQVSLSCAVKGFYPSDIAVEWESNGQPENNYKTTPPVLDSDGSFFLVSKLTVDKSRWQQGNVFSCSVMHEALHNRFTQKSLSLSPGK
light 1: EVILVESGGGLVKPGGSLKLSCAASGFSFSSYTMSWVRQTPEKRLDWVATISGGGRDIYYPDSVKGRFTISRDNAKNTLYLEMSSLMSEDTALYYCVLLTGRVYFALDSWGQGTSVTVSSASVAAPSVFIFPPSDEQLKSGTASVVCLLNNFYPREAKVQWKVDNALQSGNSQESVTEQDSKDSTYSLSSTLTLSKADYEKHKVYACEVTHQGLSSPVTKSFNRGEC
light 2: QIVLTQSPAIMSASPGQKVTITCSASSSVNYTQWYQQKLGSSPKLWIYDAFKLAPGVPARFSGSGTGTSYSLTISSMEAEDAASYFCHQWSSYPWTFGGGTKLEIKRTVAAPSVFIFPPSDRKLKSGTASVVCLLNNFYPREAKVQWKVDNALQSGNSQESVTEQDSKDSTYSLSSTLTLSKADYEKHKVYACEVTHQGLSSPVTKSFNRGEC
notes: 1+1 CrossMAb Vh-VL: HC1/LC1 form the crossed PD1 arm, HC2/LC2 the TIM3 arm; knobs into holes
Regarding B3, in [6], the “EC50 … donors D2 + D6” value is 4.3 nM. Further, the concentration for a half-maximal effect (EC50 (read off the curve)) in [7] and in assay [8] was roughly 0.7 nM each time. In addition, the results for the EC50 in assay [4] and in assay [5] were 0.11 nM and 0.41 nM, respectively. The Kd (commonly the concentration at which binding is half-saturated) stood at 10.3 nM with monomeric human Tim3-ECD and 1.2 nM with human PD1-ECD.

B4: 1+1 PD1TIM3_0389 (based on chimeric PD1-0103 / Tim3-0028) (bispecific antibody, human IgG1, kappa, L234A L235A)
heavy 1: not shown
heavy 2: EVQLQQSVAELVRPGASVKLSCTASGFNIKTTYMHWVKQRPEQGLEWIGRIDPADDNTKYAPKFQGKATITADTSSNTAYLQLSSLTSEDAAIYYCVRDFGYVAWFAYWGQGTLVTFSAASTKGPSVFPLAPSSKSTSGGTAALGCLVEDYFPEPVTVSWNSGALTSGVHTFPAVLQSSGLYSLSSVVTVPSSSLGTQTYICNVNHKPSNTKVDEKVEPKSCDKTHTCPPCPAPEAAGGPSVFLFPPKPKDTLMISRTPEVTCVVVDVSHEDPEVKFNWYVDGVEVHNAKTKPREEQYNSTYRVVSVLTVLHQDWLNGKEYKCKVSNKALGAPIEKTISKAKGQPREPQVCTLPPSRDELTKNQVSLSCAVKGFYPSDIAVEWESNGQPENNYKTTPPVLDSDGSFFLVSKLTVDKSRWQQGNVFSCSVMHEALHNRFTQKSLSLSPGK
light 1: B3 light 1
light 2: NIVMTPTPKFLPVSSGDRVTMTCRASQSVDNYVAWYQQKPGQSPKLLIYYASNRYIGVPDRFTGSGSGTDFTFTISSVQVEDLAVYFCQQHYSSPYTFGSGTKLEIKRTVAAPSVFIFPPSDRKLKSGTASVVCLLNNFYPREAKVQWKVDNALQSGNSQESVTEQDSKDSTYSLSSTLTLSKADYEKHKVYACEVTHQGLSSPVTKSFNRGEC
notes: 1+1 CrossMAb Vh-VL: HC1/LC1 form the crossed PD1 arm, HC2/LC2 the TIM3 arm; knobs into holes; also called PD1TIM3-0389 (0357); Bispec AB 0389 (1+1)
Consider B4, for which the binding result in assay [9] and in assay [10] was “binds” each time. In assay [11], the “EC50 … donors D2 + D6” value came to 2.8 nM. In addition, in assay [12], the “EC50 of IFN-gamma secretion in MLR, donors D1 + D3” value turned out to be 2 nM. In addition, the “EC50 of IFN-gamma secretion in MLR, donors D2 + D4” value in assay [12] came out at 1.9 nM. Besides, the EC50 in assay [4] is 0.13 nM. In addition, the values for the Kd with monomeric human Tim3-ECD and with human PD1-ECD were 245 nM and 1.3 nM, respectively.

B5: 2+2 PD1TIM3_0359 (chimeric PD1-0103 / Tim3-0018) (bispecific antibody, human IgG1, kappa, L234A L235A)
heavy: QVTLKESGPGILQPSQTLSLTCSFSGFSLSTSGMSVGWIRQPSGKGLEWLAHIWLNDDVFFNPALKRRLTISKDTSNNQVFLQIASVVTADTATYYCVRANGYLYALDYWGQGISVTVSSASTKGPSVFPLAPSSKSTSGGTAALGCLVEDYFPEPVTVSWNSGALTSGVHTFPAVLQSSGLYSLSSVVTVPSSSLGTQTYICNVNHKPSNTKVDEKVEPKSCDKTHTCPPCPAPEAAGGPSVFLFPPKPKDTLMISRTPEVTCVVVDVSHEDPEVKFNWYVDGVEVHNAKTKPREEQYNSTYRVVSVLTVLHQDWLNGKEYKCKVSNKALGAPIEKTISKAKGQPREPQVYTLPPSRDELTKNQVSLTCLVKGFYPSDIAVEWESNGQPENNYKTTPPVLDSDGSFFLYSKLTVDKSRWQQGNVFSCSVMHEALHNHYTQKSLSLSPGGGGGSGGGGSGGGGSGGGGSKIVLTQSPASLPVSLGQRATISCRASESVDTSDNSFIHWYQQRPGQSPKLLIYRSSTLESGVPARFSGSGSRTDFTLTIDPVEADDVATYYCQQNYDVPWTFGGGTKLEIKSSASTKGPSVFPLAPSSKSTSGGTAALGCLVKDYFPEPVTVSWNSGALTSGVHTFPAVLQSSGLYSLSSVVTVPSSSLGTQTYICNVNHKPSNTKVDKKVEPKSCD
light 1: B3 light 2
light 2: B3 light 1
notes: 2+2 CrossMAb: TIM3 IgG with a crossed PD1 Fab fused by (G4S)4 to the C-terminus of each heavy chain; also called PD1TIM3-0359 (2 + 2)
Consider B5, for which the binding result in assay [9] and in assay [10] was “binds” in each case. The concentration giving a half-maximal response (EC50) in assay [4] amounted to 0.09 nM; in assay [5], 0.11 nM. For the same molecule, the Kd with monomeric human Tim3-ECD amounted to 2.3 nM; with human PD1-ECD, 1.8 nM.
